Experimental data from patent US8278415B2, “Dimeric high affinity EGFR constructs and uses thereof” (Centocor, Inc., priority 2006, dated 2012).
≈ marks a conversion by molar mass, not a printed value. Like-named read-outs stand apart in the source and are kept apart here.

Columns and labels:
sEGFR-MMB [1] = target: T1, sEGFR-MMB (Homo sapiens, UniProt P00533); test: Phage ELISA on coated sEGFR-MMB; format: binding
T1 construct: made in house; host or cells: HEK 293E
Description: (§1) The protein solution was removed and wells were rinsed twice with Tris-Buffered Saline containing 0.05% Tween-20 (TBS-T) using a plate washer (Embla). The wells were blocked with Starting Block in TBS for 1 hr at room temperature and rinsed twice with TBS-T. An equal volume of phage supernatant and Starting Block in TBS were incubated in the wells for 1 hr at room temperature, and the wells were rinsed five times with TBS-T. Anti-M13/horseradish peroxidase conjugate (Amersham), diluted 1:5000 in Starting Block in TBS, was added into the wells and incubated for 1 hour at room temperature, and then the wells were rinsed five times with TBS-T. Finally, chemiluminescent peroxidase substrate (Roche) was added to the wells, and chemiluminescence was measured on a Tecan plate reader.
(§2) Phage were amplified in XL-1 Blue host cells and purified by precipitation with 6% polyethylene glycol-8000/0.5 M sodium chloride. The precipitated phage were resuspended in phosphate-buffered saline in a volume that was 1/100th the original culture volume. […] The binding reaction was incubated for 1 hr at room temperature, and then bound phage were detected with anti-M13/HRP as above. For ELISAs with biotinylated receptors, streptavidin at 5 μg/ml was coated in the wells overnight at 4° C. […] The wells were rinsed with TBS-T and then blocked with Starting Block. Bound phage were washed and detected with anti-M13/HRP as described above.
(§3) The plates were held overnight at room temperature, washed twice with TBST (0.5M Tris Base, 9% NaCl, 0.05% tween, pH 7.6), and loaded with 200 μL per well of Starting Block (Pierce). […] The plates were held at room temperature for 1.5 hours for blocking Plates were then washed twice with TBST and phage were added. The phage solutions were crude phage supernatant from overnight cultures diluted four-fold with Starting Block. After a one-hour incubation, the plates were washed thrice with TBST and 100 μL of a 1:5000 dilution of phage binding antibody conjugate (α-M13-HRP) was added to the wells. EGF was added if applicable. After a one-hour incubation the plates were washed five times with TBST, 100 μL of POD (BM Chemiluminescence ELISA substrate; Roche Applied Science) was added, and chemiluminescene recorded.

b-sEGFR-His = target: T2, b-sEGFR-His (Homo sapiens, UniProt P00533); test: Phage ELISA on biotinylated sEGFR-His6 captured on streptavidin; format: binding; conditions: biotinylated and immobilized on streptavidin
T2 construct: made in house; host or cells: HEK293E
Description: as §2

sEGFR-MMB [2] = target: T1, sEGFR-MMB; test: Competitive phage ELISA (EGF, TGF-α, IMC-c225 as competitive agent); format: binding
Description: as §2

MDA-MB-468 = test: cells; conditions: Homo sapiens
A431 cells = test: Flow cytometry of phage binding to A431 cells; format: cell-based, human; conditions: for binding to A431 tumor cells: anti-phage-FITC
Description: (§4) To evaluate whether the selected peptides from phage display can bind to tumor cells that overexpress EGFR, A431 cells (epidermoid cancer) or an EGFR negative tumor cells, MCF-7 (breast carcinoma) were tested in a flow cytometry assay using fluorescence detection (FACS). For P145, PP146 and their control phage, 2.5×10^5 A431 cells were resuspended in 25 μl of flow staining buffer (dPBS with 1% BSA, 0.09% sodium azide) and incubated with 25 μl of phage clones for 1 hour at 4° C. […] Cells were washed two times with flow staining buffer and then incubated with 0.5 μg of mouse anti M13/fd/Fl filamentous phages monoclonal antibody conjugated to FITC (Fitzgerald Industries International, Inc. Concord, Mass.) for 45 minutes at 4° C. Cells were washed two times with flow staining buffer and acquired by FACSCalibur (BD, Franklin Lakes, N.J.) to detect bound phages on tumor cell surface.
A431 cells (epidermoid cancer) which overexpress EGFR and EGFR-negative tumor cells, MCF-7 (breast carcinoma) were tested in a flow cytometry assay. Tumor cells (A431 and MCF-7) were harvested with 0.25% tyrpsin-EDTA and washed twice with FACS staining buffer (dPBS with 1% BSA, 0.09% sodium azide). […] After binding at 4° C., cells were washed twice with FACS staining buffer to remove unbound phage and then incubated with 0.5 μg of mouse anti-M13 monoclonal antibody conjugated to FITC (Fitzgerald Industries International, Inc. Concord, Mass.) for 1 hour at 4° C. Mouse anti-M13-FITC incubated with cells without phage was used as background binding. Cells were washed twice with FACS staining buffer to remove unbound detection antibody.

EGF + sEGFR-MMB Complex = target: T3, EGF + sEGFR-MMB Complex (Homo sapiens, UniProt P00533); test: Phage ELISA on sEGFR-MMB in the presence of EGF; format: binding
T3 construct: made in house
Description: as §3

sEGFR-His6 = target: T4, sEGFR-His6 (Homo sapiens, UniProt P00533); test: Phage ELISA on coated sEGFR-His6; format: binding
T4 construct: made in house; host or cells: HEK293E
Description: as §3

Control-MMB = Control-MMB (Homo sapiens, UniProt P01857); test: Phage ELISA on Control-MMB; format: binding
Description: as §1
The plates were held overnight at room temperature, washed twice with TBST (0.5M Tris Base, 9% NaCl, 0.05% tween, pH 7.6), and loaded with 200 μL per well of Starting Block (Pierce). […] The plates were held at room temperature for 1.5 hours for blocking Plates were then washed twice with TBST and phage were added. […] After a one-hour incubation the plates were washed five times with TBST, 100 μL of POD (BM Chemiluminescence ELISA substrate; Roche Applied Science) was added, and chemiluminescene recorded.

MCF-7 = test: Flow cytometry of phage binding to MCF-7 cells; format: cell-based, human
Description: as §4
A431 cells (epidermoid cancer) which overexpress EGFR and EGFR-negative tumor cells, MCF-7 (breast carcinoma) were tested in a flow cytometry assay. Tumor cells (A431 and MCF-7) were harvested with 0.25% tyrpsin-EDTA and washed twice with FACS staining buffer (dPBS with 1% BSA, 0.09% sodium azide). […]

b-sEGFR-MMB = target: T5, b-sEGFR-MMB (Homo sapiens, UniProt P00533); test: Phage ELISA on biotinylated sEGFR-MMB captured on streptavidin; format: binding
T5 construct: made in house; host or cells: HEK 293E
Description: as §2

Row | Molecule | binding to sEGFR-MMB (in words) (sEGFR-MMB [1]) | binding to sEGFR-His6 (in words) (b-sEGFR-His) | competition with EGF, TGF-α, IMC-c225 (in words) (sEGFR-MMB [2]) | binding to A431 relative to positive control EGF phage (A431 cells) | binding to A431 tumor cells (A431 cells) | also measured
1 | COc1cccc2c1C(=O)c1c(O)c3c(c(O)c1C2=O)C[C@@](O)(C(=O)CO)C[C@@H]3O[C@H]1C[C@H](N)[C@H](O)[C@H](C)O1 [Doxorubicin] |  |  |  |  |  | IC50 (MDA-MB-468; MDA-MB-468, read-out: IC50 D4): 2.5 µg/mL (≈ 4.6 µM); IC50 (MDA-MB-468; MDA-MB-468, read-out: IC50 D6): < 1.6 µg/mL
2 | TLCRSFFHPLCYA (Random peptide) [P146] |  |  |  | weaker than that exhibited by a positive control phage that displayed EGF on pIII | displayed binding to A431 tumor cells | 
3 | DPCTWEVWGRECLQ [P190] | binds weakly |  | did not compete with EGF or TGF-alpha |  | bind to A431 | Relative Signal (sEGFR-MMB [1]; construct SEGFR-MMB): 3937 ± 335; binding to dimeric EGFR in the presence of EGF or TGF-a (EGF + sEGFR-MMB Complex; pIX display): increased in the presence of EGF or TGF-a; binding to the complex between EGF and sEGFR-MMB (in words) (EGF + sEGFR-MMB Complex; phage ELISA): binds well; Relative Signal (EGF + sEGFR-MMB Complex; phage ELISA, construct SEGFR-MMB + EGF): 29408 ± 259; binding to sEGFR-His6 (in words) (sEGFR-His6; coated monomeric sEGFR): virtually no binding; Relative Signal (sEGFR-His6; construct sEGFR-His6): 6; binding to Control-MMB (in words) (Control-MMB): fails to bind; binding to A431 cells in the presence of EGF (A431 cells): increased; binding to A431 cells in the presence of EGF and cetuximab (A431 cells): decreases; binding to MCF-7 (MCF-7): not to MCF-7
4 | SGCLDALWQCVY (Random peptide) [P174] | bound both sEGFR-MMB and sEGFR-His6 | bound both sEGFR-MMB and sEGFR-His6 | not inhibited by the EGFR ligands tested | comparable to that by a positive control phage that displayed EGF on pIX | displayed binding to A431 tumor cells | 
5 | VLCHRYYHPICYT [P145] |  |  |  | weaker than that exhibited by a positive control phage that displayed EGF on pIII | displayed binding to A431 tumor cells | 
6 | GPCVLIRDYYLLCLE (Random peptide) [P179] | bound sEGFR-MMB when it was passively immobilized in ELISA wells |  |  |  |  | binding to biotinylated sEGFR-MMB captured on streptavidin (in words) (b-sEGFR-MMB): not biotinylated sEGFR-MMB that had been captured on streptavidin

Further lines, with some results ahead:

Row | binding to sEGFR-MMB (in words) (sEGFR-MMB [1]) | binding to sEGFR-His6 (in words) (b-sEGFR-His) | Molecule | competition with EGF, TGF-α, IMC-c225 (in words) (sEGFR-MMB [2]) | binding to A431 relative to positive control EGF phage (A431 cells) | binding to A431 tumor cells (A431 cells) | also measured
7 | bound sEGFR-MMB | not sEGFR-His6 | LPDDSLPELICKVRG (Random peptide) [P175] | did not compete with EGFR ligands |  |  | 
8 | bound both sEGFR-MMB and sEGFR-His6 | bound both sEGFR-MMB and sEGFR-His6 | KTCVSTTFDLWFVCFA (Random peptide) [P176] | competitive with IMC-c225 (cetuximab), EGF, and TGF-α | comparable to that by a positive control phage that displayed EGF on pIX | displayed binding to A431 tumor cells | 
